The text below walks through data of patent US8420776B2, “Ube2G2 binding domain in the ubiquitin ligase gp78 and methods of use thereof” (The United States of America, as Represented by the …, priority 2004, dated 2013).

One experiment has as its target T1, Ube2G2/MmUbc7 (Mus musculus, UniProt P60605).
T1 construct: made in house; host or cells: coupled in vitro transcription/translation in rabbit reticulocyte lysate or wheat germ
T1 sequence (P60605 1-165): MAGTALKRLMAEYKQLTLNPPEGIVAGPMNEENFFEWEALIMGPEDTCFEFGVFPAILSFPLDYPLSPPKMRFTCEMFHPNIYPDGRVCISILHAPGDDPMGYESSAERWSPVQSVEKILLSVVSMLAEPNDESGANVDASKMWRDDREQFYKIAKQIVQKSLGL
The experiment is described as follows: GST pull-down binding of in vitro translated 35S-Met Ube2G2/MmUbc7. Set-up: species or system human. Particulars: GST fusion pull-down; 35S-Met labeled E2.

The next experiment concerns the target T2, Ube2G1 (Rattus norvegicus, UniProt P62255).
T2 construct: made in house; host or cells: in vitro translation in wheat germ (similar results in reticulocyte lysate)
T2 sequence (P62255 1-170): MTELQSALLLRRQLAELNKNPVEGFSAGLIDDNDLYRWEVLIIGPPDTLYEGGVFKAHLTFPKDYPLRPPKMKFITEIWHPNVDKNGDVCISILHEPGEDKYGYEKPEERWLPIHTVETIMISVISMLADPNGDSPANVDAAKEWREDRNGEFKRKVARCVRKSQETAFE
Put plainly: GST pull-down binding of in vitro translated Ube2G1. Particulars: GST fusion pull-down. From the text: Plasmids encoding the following have been described: rat Ubc7 (Ube2g1) (Lin and Wing, 1999); UbcH5B (Jensen et al., 1995); Myc-MmUbc7, C89S Myc-MmUbc7, HA-CD3-δ and 2B4 TCR-α (Tiwari and Weissman, 2001); GST-gp78 309 to 643, 508 or 428 and full length gp78 and the double RING finger mutation gp78Rf-m in pCINeo (Fang et al., 2001); and GST-UBA-Cbl-b (Davies et al., 2004). Plasmids encoding Ubc7p and His6-MmUbc7 were generated by PCR and subcloned into pCDNA-DEST47 or pExp17 respectively using Gateway (Invitrogen, Carlsbad, Calif.). GST-AO7 (92 to 259) was subcloned from full length A07 (Lorick et al., 1999). GST-gp78 beginning at 429, 503, 522, 542, 561, 574, 587, or 596 and ending at 643 GST-gp78 beginning at 435 and ending at 507 and GST-Cue1p 24-203 (Cue1pC) were generated by PCR and cloning into pGEX4T-1 (Amersham Biosciences, Piscataway, N.J.). N-terminal Flag-tagged constructs were created by PCR and cloning into pFlag-CMV6 (Sigma). N-terminal GFP-tagged constructs were generated by subcloning from pFLAG-CMV6 to pEGFP-C1 (BD Biosciences, Palo Alto, Calif.). […]
GST fusions were purified from E. Coli. Binding was carried out using equi-molar amount of fusion proteins measured by Commassie blue staining. […] After transfer to Hybond-P (Amersham Biosciences) binding was assessed with anti-His6 followed by Enhanced Chemiluminescence ECL; Pierce). […]

Another experiment deals with T3, UbcH5B (Homo sapiens, UniProt P62837).
T3 construct: made in house; host or cells: in vitro translation in wheat germ
T3 sequence (P62837 whole entry): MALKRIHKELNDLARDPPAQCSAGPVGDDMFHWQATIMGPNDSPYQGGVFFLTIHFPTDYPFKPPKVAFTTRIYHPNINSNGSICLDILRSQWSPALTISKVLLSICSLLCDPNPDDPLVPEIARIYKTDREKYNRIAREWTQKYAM
The experiment is described as follows: GST pull-down binding of in vitro translated UbcH5B. The settings on record: GST fusion pull-down. As for the experimental part:
(§1) GST fusions were purified from E. Coli. Binding was carried out using equi-molar amount of fusion proteins measured by Commassie blue staining. Generally, 20 picomoles/sample were used. In vitro translated E2 was generated by coupled transcription and translation using 35S methionine in either wheat germ or rabbit reticulocyte lysate. Binding assays using in vitro translated E2 was carried out by incubating GST protein pre-bound to Glutathione-sepharose 4B with […] of ^35S-methionine labeled E2 in binding buffer (25 mM Tris-HCl, pH 7.4; 50 mM NaCl, 5 mM DTT; and 0.5% NP-40) overnight at 4° C. Beads were washed with binding buffer and resolved by SDS-PAGE under reducing conditions. Analysis was by Storm PhosphoImager (Applied Biosystems, Foster City, Calif.). Direct binding assays used wild type His6-MmUbc7 (His6-Ube2G2) and Glutathione-sepharose bound GST fusions. Beadbound GST protein was incubated with 100 ng purified His6-MmUbc7 in binding buffer and washed and eluted as above. After transfer to Hybond-P (Amersham Biosciences) binding was assessed with anti-His6 followed by Enhanced Chemiluminescence ECL; Pierce). Ubiquitin binding studies were performed with binding and washing as above using 1 μg K48 tetra-ubiquitin produced as described (Piotrowski et al., 1997). Detection was by anti-ubiquitin immunoblotting. […]

In a further experiment the target is T4, Ubc7p (Saccharomyces cerevisiae, UniProt Q02159).
T4 construct: made in house; host or cells: in vitro translation in wheat germ from pCDNA-DEST47
T4 sequence (Q02159 1-165): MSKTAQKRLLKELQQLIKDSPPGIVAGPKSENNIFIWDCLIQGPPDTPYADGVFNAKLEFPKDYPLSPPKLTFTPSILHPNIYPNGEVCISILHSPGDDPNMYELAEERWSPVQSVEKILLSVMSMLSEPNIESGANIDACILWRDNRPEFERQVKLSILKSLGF
Put plainly: GST pull-down binding of in vitro translated Ubc7p. The settings on record: GST fusion pull-down. Further details: species or system yeast. As for the experimental part: as §1

The target in experiment [1] is T5, lysine 48-linked (K48) tetra-ubiquitin (Homo sapiens, UniProt P0CG47).
T5 construct: 1 μg K48 tetra-ubiquitin produced as described (Piotrowski et al., 1997); made in house
The experiment is described as follows: Tetra-ubiquitin binding to GST fusions. Particulars: anti-ubiquitin immunoblot. The procedure: (§2) GST fusions were purified from E. Coli. Binding was carried out using equi-molar amount of fusion proteins measured by Commassie blue staining. Generally, 20 picomoles/sample were used. In vitro translated E2 was generated by coupled transcription and translation using 35S methionine in either wheat germ or rabbit reticulocyte lysate. Binding assays using in vitro translated E2 was carried out by incubating GST protein pre-bound to Glutathione-sepharose 4B with […] of ^35S-methionine labeled E2 in binding buffer (25 mM Tris-HCl, pH 7.4; 50 mM NaCl, 5 mM DTT; and 0.5% NP-40) overnight at 4° C. Beads were washed with binding buffer and resolved by SDS-PAGE under reducing conditions. Analysis was by Storm PhosphoImager (Applied Biosystems, Foster City, Calif.). Direct binding assays used wild type His6-MmUbc7 (His6-Ube2G2) and Glutathione-sepharose bound GST fusions. Beadbound GST protein was incubated with 100 ng purified His6-MmUbc7 in binding buffer and washed and eluted as above. After transfer to Hybond-P (Amersham Biosciences) binding was assessed with anti-His6 followed by Enhanced Chemiluminescence ECL; Pierce). Ubiquitin binding studies were performed with binding and washing as above using 1 μg K48 tetra-ubiquitin produced as described (Piotrowski et al., 1997). Detection was by anti-ubiquitin immunoblotting.

Another experiment concerns the target T6, His6-Ube2G2 (Mus musculus, UniProt P60605).
T6 construct: made in house; host or cells: bacteria (pExp17, Gateway)
T6 sequence (P60605 1-165): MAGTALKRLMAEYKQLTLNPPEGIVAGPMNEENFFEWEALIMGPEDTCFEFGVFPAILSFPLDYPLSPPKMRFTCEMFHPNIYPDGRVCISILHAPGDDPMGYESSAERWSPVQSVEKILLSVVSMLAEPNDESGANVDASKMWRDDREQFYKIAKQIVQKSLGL
Put plainly: Direct binding of bacterially expressed His6-Ube2G2 to GST fusions. The settings on record: purified E2, anti-His6 immunoblot. The procedure: as §2
In general terms: In western blotting, separated proteins are transferred to a membrane and probed.

The next experiment deals with T7, endogenous Ube2G2 (Homo sapiens, UniProt P60604).
T7 construct: endogenous in cells; host or cells: HEK 293T
T7 sequence (P60604 1-165): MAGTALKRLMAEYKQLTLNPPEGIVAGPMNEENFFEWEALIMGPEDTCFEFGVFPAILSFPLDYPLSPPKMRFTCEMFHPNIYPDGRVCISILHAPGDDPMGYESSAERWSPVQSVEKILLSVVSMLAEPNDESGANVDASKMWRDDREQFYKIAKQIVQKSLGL
Put plainly: Co-immunoprecipitation of endogenous Ube2G2 with GFP fusions in HEK 293T cells. The format is cell-based. Particulars: anti-GFP IP. As for the experimental part: Transfections of HT1080, NIH 3T3 and HEK 293T cells were carried out ˜24 hr after plating using Polyfect (Qiagen, Valencia, Calif.) and cells harvested after ˜48 hr. J558 cells were transfected by electroporation using Bio-rad GENE pulser II at settings of 250 v, 950uF. Vector without insert was used to equalize total plasmid. In most experiments 0.15 μg of pEGFP-C1 served as an internal control. For experiments not involving immunoprecipitation, 6×10^5 cells were plated in 6 well plates and cell lysis was with Mammalian Protein Extraction Reagent (Pierce). […] Supernatants were analyzed after a 10,000×g centrifugation using standard techniques for immunoprecipitation, SDS-PAGE, immunoblotting and ECL. […]
FIG. 6 depicts the specific binding of gp78 residues 574-611 (of SEQ ID NO:2) to endogenous Ube2G2 in HEK 293T cells. Cells were transfected with plasmids encoding GFP fusions of the indicated regions of gp78, and co-immunoprecipitation was evaluated. […]
To determine the specificity of E2 binding in cells, GFP fusions encompassing the E2 binding region were expressed in cells, and co-immunoprecipitation of endogenous E2 was tested using antibodies raised specifically against Ube2g1, Ube2G2 and UbcH5B (FIG. 19B). […] In contrast, and consistent with the in vitro binding data in FIG. 18, no association with endogenous UbcH5B or Ube2g1 was detected (FIG. 19B third and fourth panels, left). […]

The test system of a further experiment is ERAD substrate CD3-δ. The experiment is described as follows: Cycloheximide chase of CD3-δ in co-transfected cells. The class given is cell-based. The settings on record: co-transfection with HA-CD3-δ. As for the experimental part:
(§3) Transfections of HT1080, NIH 3T3 and HEK 293T cells were carried out ˜24 hr after plating using Polyfect (Qiagen, Valencia, Calif.) and cells harvested after ˜48 hr. J558 cells were transfected by electroporation using Bio-rad GENE pulser II at settings of 250 v, 950uF. Vector without insert was used to equalize total plasmid. In most experiments 0.15 μg of pEGFP-C1 served as an internal control. For experiments not involving immunoprecipitation, 6×10^5 cells were plated in 6 well plates and cell lysis was with Mammalian Protein Extraction Reagent (Pierce). For immunoprecipitation, 2.4×10^6 cells were seeded in 100 mm dishes and cells were lysed in RIPA buffer (1×PBS, 1% Nonidet P40. 0.5% sodium deoxycholate, 0.1% SDS). Lysis buffers were supplemented with Protease Inhibitor Cocktail (Sigma) and 10 mM iodoacetamide. Supernatants were analyzed after a 10,000×g centrifugation using standard techniques for immunoprecipitation, SDS-PAGE, immunoblotting and ECL. Treatment of cells with MG132 (Sigma) was at 50 μM for eight hr. Cycloheximnide was used at 50 μg/ml. All cells were collected at the end of the six hr chase.
(§4) To evaluate protein turnover in more detail, cycloheximide chase experiments were performed (FIGS. 20C and 20D). […] In agreement with FIG. 20A, CD3-δ degradation was accelerated with wild type gp78 (FIGS. 20C and 20D middle panels; effects of full-length forms of gp78 on CD3-δ from FIGS. 20C and 20D are quantified in FIG. 20E).

The next experiment concerns gp78. The experiment is described as follows: Cycloheximide chase of gp78 in transfected cells. The settings on record: compared to wild type gp78. The class given is cell-based. The procedure:
as §3, §4

Method for Ube2G2/MmUbc7: GST fusions were purified from E. Coli. Binding was carried out using equi-molar amount of fusion proteins measured by Commassie blue staining. Generally, 20 picomoles/sample were used. In vitro translated E2 was generated by coupled transcription and translation using 35S methionine in either wheat germ or rabbit reticulocyte lysate. […] Beads were washed with binding buffer and resolved by SDS-PAGE under reducing conditions. Analysis was by Storm PhosphoImager (Applied Biosystems, Foster City, Calif.). Direct binding assays used wild type His6-MmUbc7 (His6-Ube2G2) and Glutathione-sepharose bound GST fusions. Beadbound GST protein was incubated with 100 ng purified His6-MmUbc7 in binding buffer and washed and eluted as above. After transfer to Hybond-P (Amersham Biosciences) binding was assessed with anti-His6 followed by Enhanced Chemiluminescence ECL; Pierce).
The E2 enzymes were in vitro translated using wheat germ.
GST fusion proteins encoding the regions indicated in FIGS. 3A-3C were evaluated for the ability to bind to Ube2G2/MmUbc7 that had been in vitro transcribed and translated in rabbit reticulocyte lysate. gp78C represents the entire C-terminal cytoplasmic domain of gp78 (amino acid residues 309-643 of SEQ ID NO:2).

B1: Cue1pC: GST fusion of the cytoplasmic domain of yeast Cue1p (protein)
chain: QSNQHPSAQRLSATGVNAHGRPQGSTQNALRRTGRVNGGHPVTTQMVETVQNLAPNLHPEQIRYSLENTGSVEETVERYLRGDEFSFPPGFEPSRAPMGANAAVDNNAAGGGEFNDPRKKNMICAENLLDKFHVDLNEDMSNLSFKDLDIEERKRLLVWQARKNLETKLQSDKDLQSLLT
modifications: left off: a dimerising Fc or GST
notes: GST fusion of the cytoplasmic domain of yeast Cue1p
With B1, the “binding to in vitro translated Ube2G2/MmUbc7” value in the experiment with Ube2G2/MmUbc7 is “bound”. Further, the “binding to in vitro translated Ube2G1” value in the experiment with Ube2G1 is “no binding”. For the same molecule, the “binding to in vitro translated UbcH5B” value with UbcH5B is given as “bound to neither”. In addition, in the experiment with Ubc7p, the “binding to in vitro translated yeast Ubc7p” value was “bound”. In [1], the “binding of K48 tetra-ubiquitin” value was “no binding”.

B2: E2-m2: GST-gp78 fusion with residues 579-584 (QRMLVQ) mutated to AAAGGG; in b274 the same mutation in a GFP fusion (protein)
chain: MPLLFLERFPWPSLRTYTGLSGLALLGTIISAYRALSQPEAGPGEPDQLTASLQPEPPAPARPSAGGPRARDVAQYLLSDSLFVWVLVNTACCVLMLVAKLIQCIVFGPLRVSERQHLKDKFWNFIFYKFIFIFGVLNVQTVEEVVMWCLWFAGLVFLHLMVQLCKDRFEYLSFSPTTPMSSHGRVLSLLVAMLLSCCGLAAVCSITGYTHGMHTLAFMAAESLLVTVRTAHVILRYVIHLWDLNHEGTWEGKGTYVYYTDFVMELTLLSLDLMHHIHMLLFGNIWLSMASLVIFMQLRYLFHEVQRRIRRHKNYLRVVGNMEARFAVATPEELAVNNDDCAICWDSMQAARKLPCGHLFHNSCLRSWLEQDTSCPTCRMSLNIADNNRVREEHQGENLDENLVPVAAAEGRPRLNQHNHFFHFDGSRIASWLPSFSVEVMHTTNILGITQASNSQLNAMAHQIQEMFPQVPYHLVLQDLQLTRSVEITTDNILEGRIQVPFPTQRSDSIRPALNSPVERPSSDQEEGETSAQTERVPLDLSPRLEETLDFGEVEVEPSEVEDFEARGSRFSKSADERAAAGGGRKDELLQQARKRFLNKSSEDDAASESFLPLEGASSDPVTLRRRMLAAAAERRLQKQQTS
As for B2, the “binding to in vitro translated Ube2G2/MmUbc7” value with Ube2G2/MmUbc7 is “loss of binding”. The “direct binding of His6-Ube2G2” value with His6-Ube2G2 is “disrupted binding”. Besides, the “co-immunoprecipitation of endogenous Ube2G2” value with endogenous Ube2G2 was “abrogated binding”. For the same molecule, in the experiment on ERAD substrate CD3-δ, the “effect on CD3-δ degradation” value is listed as “minimal stabilization of CD3-δ”. Also, the gp78 stability entry with gp78 is “stabilized gp78”.
